Measured values from PMC10354202 (2023).

Columns and labels:
Experiment in all cases: magnetic tweezers
[1] = target: T1, talin VBS (UniProt Q9Y490, talin stretched above ~10 pN)
T1 chain: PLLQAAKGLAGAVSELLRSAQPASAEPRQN

[2] = target: T2, talin VBS (UniProt Q9Y490, talin stretched at low force, matured complex)
T2 chain: T1 chain

[3] = target: T3, talin VBS (UniProt Q9Y490, talin stretched at low force (up to ~9-10 pN))
T3 chain: T1 chain

- Kd [1]: ~5000 pM
- Kd [2]: ~4 pM
- Kd [3]: ~200 pM
B1: vinculin (protein)
chain: MPVFHTRTIESILEPVAQQISHLVIMHEEGEVDGKAIPDLTAPVAAVQAAVSNLVRVGKETVQTTEDQILKRDMPPAFIKVENACTKLVQAAQMLQSDPYSVPARDYLIDGSRGILSGTSDLLLTFDEAEVRKIIRVCKGILEYLTVAEVVETMEDLVTYTKNLGPGMTKMAKMIDERQQELTHQEHRVMLVNSMNTVKELLPVLISAMKIFVTTKNSKNQGIEEALKNRNFTVEKMSAEINEIIRVLQLTSWDEDAWASKDTEAMKRALASIDSKLNQAKGWLRDPSASPGDAGEQAIRQILDEAGKVGELCAGKERREILGTCKMLGQMTDQVADLRARGQGSSPVAMQKAQQVSQGLDVLTAKVENAARKLEAMTNSKQSIAKKIDAAQNWLADPNGGPEGEEQIRGALAEARKIAELCDDPKERDDILRSLGEISALTSKLADLRRQGKGDSPEARALAKQVATALQNLQTKTNRAVANSRPAKAAVHLEGKIEQAQRWIDNPTVDDRGVGQAAIRGLVAEGHRLANVMMGPYRQDLLAKCDRVDQLTAQLADLAARGEGESPQARALASQLQDSLKDLKARMQEAMTQEVSDVFSDTTTPIKLLAVAATAPPDAPNREEVFDERAANFENHSGKLGATAEKAAAVGTANKSTVEGIQASVKTARELTPQVVSAARILLRNPGNQAAYEHFETMKNQWIDNVEKMTGLVDEAIDTKSLLDASEEAIKKDLDKCKVAMANIQPQMLVAGATSIARRANRILLVAKREVENSEDPKFREAVKAASDELSKTISPMVMDAKAVAGNISDPGLQKSFLDSGYRILGAVAKVREAFQPQEPDFPPPPPDLEQLRLTDELAPPKPPLPEGEVPPPRPPPPEEKDEEFPEQKAGEVINQPMMMAARQLHDEARKWSSKPGIPAAEVGIGVVAEADAADAAGFPVPPDMEDDYEPELLLMPSNQPVNQPILAAAQSLHREATKWSSKGNDIIAAAKRMALLMAEMSRLVRGGSGTKRALIQCAKDIAKASDEVTRLAKEVAKQCTDKRIRTNLLQVCERIPTISTQLKILSTVKATMLGRTNISDEESEQATEMLVHNAQNLMQSVKETVREAEAASIKIRTDAGFTLRWVRKTPWYQ
